US9675707B2, “Anti-TAT226 antibodies and immunoconjugates” (GENENTECH, INC., priority 2006, dated 2017)
Where a SMILES comes first, the peptide text is derived from it. [ ]: non-standard residue; d: D form. The star is where a group is joined. Dolaproine = CO[C@@H]([C@@H]1CCCN1)[C@@H](C)C(=O)O; Dil = CC[C@H](C)[C@H](NC)[C@@H](CC(=O)O)OC; X1 = C[C@@H](N*)[C@@H](O)c1ccccc1; NMeV = CN[C@H](C(=O)O)C(C)C

T1: TAT226 expressed on the surface of OVCAR3 (Homo sapiens, UniProt Q8N2G4)
T1 construct: TAT226 expressed on the surface of OVCAR3, a human ovarian cancer cell line; endogenous in cells; host or cells: OVCAR3
T1 sequence (Q8N2G4 21-117): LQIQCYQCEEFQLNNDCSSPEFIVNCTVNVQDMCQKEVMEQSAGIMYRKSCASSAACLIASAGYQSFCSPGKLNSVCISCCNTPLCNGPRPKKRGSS

T2: TAT226-His (Homo sapiens, UniProt Q8N2G4)
T2 construct: polyhistidine (C); made in house
T2 sequence (Q8N2G4 21-115): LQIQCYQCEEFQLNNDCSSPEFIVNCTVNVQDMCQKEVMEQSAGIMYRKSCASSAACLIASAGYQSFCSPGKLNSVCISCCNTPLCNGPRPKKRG


Columns and labels:
OVCAR3 cells = assay: OVCAR3 in vitro cell killing assay (CellTiter-Glo); type: cell-based, human; conditions: 5 days of incubation
Method: YWO.49.H2 and YWO.49.H6 ADCs were tested for the ability to inhibit proliferation of OVCAR3 cells. OVCAR3 cells were seeded in 96-well plates in RPMI with 20% FBS. Anti-MUC16/CA25 antibody conjugated to MC-vc-PAB-MMAE was used as a positive control. MUC16/CA25 is a known ovarian cancer antigen. See, e.g., Yin et al. (2001) J. Biol. Chem. 276:27371-27375. Anti-IL-8 antibody conjugated to MC-vc-PAB-MMAE was used as a negative control. After 5 days of incubation, cell viability was measured using the CellTiter-Glo™ Luminescent Cell Viability Assay (Promega, Madison, Wis.) according to the manufacturer's instructions. The scale on the y-axis of FIG. 17 indicates the relative light units, or “RLUs,” from luciferase luminescence, which is a measure of cell viability.

[1] = test system: Untransfected HCT116 cells; assay: Sensitivity of untransfected HCT116 cells to free MMAE; type: cell-based, human; conditions: untransfected HCT116 cells versus OVCAR3 cells
Method: (§1) YWO.49.H2 and YWO.49.H6 ADCs were tested for the ability to inhibit proliferation of HCT116 cells, a colon cancer cell line, which had been stably transfected with nucleic acid encoding human TAT226. Untransfected HCT116 cells are normally about 5-6 fold less sensitive to free (unconjugated) MMAE than OVCAR3 cells.

HCT116#9-4 cells = assay: In vitro cell killing assay using HCT116 transfected cells (CellTiter-Glo); type: cell-based, human; conditions: 3 days of incubation
Method: as §1
Briefly, HCT116 cells were transfected as follows. Nucleic acid encoding epitope-tagged human TAT226 was constructed in the mammalian expression vector pcDNA3.1 (Invitrogen, Carlsbad, Calif.). The epitope tag consisted of amino acids 1-53 of the herpes simplex virus type 1 glycoprotein D (the “gD” tag), which replaced the signal sequence from amino acids 1-22 at the N-terminus of human TAT226. The recombinant vector was transfected into HCT116 cells using Lipofectamine200 (Invitrogen) according to the manufacturer's protocol. Transfected HCT116 cells were cultured in McCoy's 5a medium with 10% FBS and 0.4 mg/ml G418. Cells were stained using anti-gD antibodies and sorted by FACS to select for individual clones expressing recombinant gD:human TAT226 fusion protein. […]
To perform the cell killing assay, HCT116#9-4 cells were seeded in 96-well plates. […] After 3 days of incubation, cell viability was measured using the CellTiter-Glo™ Luminescent Cell Viability Assay (Promega, Madison, Wis.) according to the manufacturer's instructions.

[2] = target: T1, TAT226 expressed on the surface of OVCAR3; assay: FACS binding to TAT226 expressed on the surface of OVCAR3 cells; conditions: 5 μg/ml primary antibody, 1 hour on ice
Method: The ability of anti-TAT226 antibodies to bind to TAT226 expressed on the surface of OVCAR3, a human ovarian cancer cell line, was examined. Fluorescence-activated cell sorting (FACS) was performed on OVCAR3 cells in the absence and in the presence of YWO.49, YWO.49.B7, YWO.49.C9, YWO.49.H2, or YWO.49.H6. Briefly, detached cells were incubated with 5 μg/ml primary antibody for 1 hour on ice, washed, and incubated with secondary antibody (anti-human IgG conjugated to phycoerythrin) for 30 minutes on ice. FACS was performed using a FACScan™ flow cytometer (BD Biosciences, San Jose, Calif.).
The peaks on the left side of each graph represent “background” binding, i.e., binding of secondary antibody only. The peaks on the right side of each graph represent binding of the indicated anti-TAT226 antibody.

TAT226-His = target: T2, TAT226-His; assay: Binding affinity for recombinant antigen by surface plasmon resonance (BIACORE 3000); conditions: immobilized antibody, TAT226-His 0.7 nM to 500 nM, 25° C., one-to-one Langmuir model; for kon/10^5: association rate; for koff/10^−4: dissociation rate
Method: The binding affinity of YWO.49, YWO.49.B7, YWO.49.C9, YWO.49.H2, and YWO.49.H6 for recombinant antigen was determined by surface plasmon resonance measurement using a BIACORE® 3000 system (Biacore, Inc., Piscataway, N.J.). Briefly, carboxymethylated dextran biosensor chips (CMS, Biacore Inc.) were activated with N-ethyl-N′-(3-dimethylaminopropyl)-carbodiimide hydrochloride (EDC) and N-hydroxysuccinimide (NHS) according to the supplier's instructions. Anti-TAT226 antibody was diluted to 5 ug/ml with 10 mM sodium acetate, pH 4.8, before injection at a flow rate of 5 ul/minute to achieve approximately 500 response units (RU) of coupled antibody. Next, 1M ethanolamine was injected to block unreacted groups. For kinetics measurements, two-fold serial dilutions of TAT226-His (0.7 nM to 500 nM) were injected in PBS with 0.05% Tween 20 at 25° C. at a flow rate of 25 μl/min. Association rates (kon) and dissociation rates (koff) were calculated using a simple one-to-one Langmuir binding model (BIAevaluation Software version 3.2). The equilibrium dissociation constant (Kd) was calculated as the ratio koff/kon.

| kon/10^5 (TAT226-His) | koff/10^−4 (TAT226-His) | Molecule | IC50 (OVCAR3 cells) [nM] | fold less sensitive than OVCAR3 cells [1] | IC50 (HCT116#9-4 cells) [nM] | binding to OVCAR3 cells by FACS [2] |
| --- | --- | --- | --- | --- | --- | --- |
| – | – | CC[C@H](C)[C@@H]([C@@H](CC(=O)N1CCC[C@H]1[C@H](OC)[C@@H](C)C(=O)N[C@H](C)[C@@H](O)c1ccccc1)OC)N(C)C(=O)[C@@H](NC(=O)[C@@H](NC)C(C)C)C(C)C [free MMAE, mono-methyl auristatin E] (H-[NMeV]V[Dil][Dolaproine]-X1) | ~0.1 | 5-6 fold | ~0.9 | – |
| 0.27 | <0.05 | YWO.49.B7: affinity matured anti-TAT226 antibody derived from YWO.49, reformatted as full-length IgG (antibody, V domains shown) VH: EVQLVESGGGLVQPGGSLRLSCAASGFTITNYGIHWVRQAPGKGLEWVGRIYPDSGATYYADSVKGRFTISADTSKNTAYLQMNSLRAEDTAVYYCARKLWVSLAAMDYWGQGTLVTVSS VL: DIQMTQSPSSLSASVGDRVTITCRASQDVSTAVAWYQQKPGKAPKLLIYSASFLYSGVPSRFSGSGSGTDFTLTISSLQPEDFATYYCQRSVFTPPAFGQGTKVEIKR | – | – | – | did not bind significantly |
| 0.22 | – | YWO.49.H2: affinity matured anti-TAT226 antibody derived from YWO.49, reformatted as full-length IgG (antibody, V domains shown) VH: EVQLVESGGGLVQPGGSLRLSCAASGFTITNYGIHWVRQAPGKGLEWVGRIYPDSGATYYADSVKGRFTISADTSKNTAYLQMNSLRAEDTAVYYCARKLWVSLAPMDYWGQGTLVTVSS VL: DIQMTQSPSSLSASVGDRVTITCRASQDVSTAVAWYQQKPGKAPKLLIYSASFLYSGVPSRFSGSGSGTDFTLTISSLQPEDFATYYCQQSYGTPFIFGQGTKVEIKR | – | – | – | – |
| 1.53 | <0.05 | YWO.49.C9: affinity matured anti-TAT226 antibody derived from YWO.49, reformatted as full-length IgG (antibody, V domains shown) VH: EVQLVESGGGLVQPGGSLRLSCAASGFTITNYGIHWVRQAPGKGLEWVGRIYPDSGATYYADSVKGRFTISADTSKNTAYLQMNSLRAEDTAVYYCARKLWVTLASMDYWGQGTLVTVSS VL: DIQMTQSPSSLSASVGDRVTITCRASQDVSTAVAWYQQKPGKAPKLLIYSASFLYSGVPSRFSGSGSGTDFTLTISSLQPEDFATYYCQKSYNTPPTFGQGTKVEIKR | – | – | – | comparable to that observed for YWO.49.H2 and YWO.H6 |
| 1.86 | 0.09 | YWO.49.H6: affinity matured anti-TAT226 antibody derived from YWO.49, reformatted as full-length IgG (antibody, V domains shown) VH: EVQLVESGGGLVQPGGSLRLSCAASGFTITNYGIHWVRQAPGKGLEWVGRIYPDSGATYYADSVKGRFTISADTSKNTAYLQMNSLRAEDTAVYYCARKLWISIAGMDYWGQGTLVTVSS VL: DIQMTQSPSSLSASVGDRVTITCRASQDVSTAVAWYQQKPGKAPKLLIYSASFLYSGVPSRFSGSGSGTDFTLTISSLQPEDFATYYCQHSYATPFTFGQGTKVEIKR | – | – | – | – |
